Assay results from patent publication US20080311122A1, “Antagonists of Hmgb1 and/or Rage and Methods of Use Thereof” (Medimmune, LLC, priority 2005, published 2008).
“Also recorded” adds a separate entry of the source.

Key:
[1] = target: T1, recombinant HMG1 binding to RAGE-Fc (Homo sapiens, UniProt P09429); experiment: HMG1 binding to RAGE-Ig by ELISA; details: at the concentrations tested
T1 construct: made in house; host or cells: E. coli (HMG1)
T1 sequence (P09429 1-215): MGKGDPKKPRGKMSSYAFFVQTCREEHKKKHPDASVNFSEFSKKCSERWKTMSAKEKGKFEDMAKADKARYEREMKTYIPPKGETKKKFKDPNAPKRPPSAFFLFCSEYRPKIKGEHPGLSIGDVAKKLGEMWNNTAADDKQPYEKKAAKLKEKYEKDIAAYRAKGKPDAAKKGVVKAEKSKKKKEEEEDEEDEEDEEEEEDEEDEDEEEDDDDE
Method: HMG1 binding to RAGE-Ig by ELISA: 50 μl/well of RAGE-Fc fusion protein at 5 μg/ml in PBS was added to each well of an ELISA plate and incubated overnight at 4° C. The plate was then blocked with 200 μl of 5% milk at 37° C. for 1 hr and washed 3× with PBS/Tween. 50 μl/well of diluted HMGB1 solution. For dose curves, HMGB1 concentrations started at 4 ug/ml in PBS. For antibody blocking the HMGB1 was preincubated in another plate with human anti-HMG1 antibodies or buffer, then transferred to the RAGE-coated plate. The plates were then incubated at room temperature for 2 hours and washed 3×. To detect any HMG1 bound to the immobilized RAGE-Fc a mixture of biotinylated mouse anti-HMG1 mAbs (10D4, 4H11, 3E10 and 5C12) each at 1 ug/ml, total Ab: 4 ug/ml, were added to each well and the plate was incubated for 1 hour at room temperature. The plate was then washed and Strepavidin-HPR was added to each well and incubated 15 min. The plate was then washed 3× and blotted dry. 100 μl of TMB developing agent was added and the plate read at 650 nm. Values were calculated as percent of inhibition with HMG1 alone equal to 0% inhibition. The data in FIG. 9 and summarized in Table 1 represent the average of two separate experiments.

[2] = tested on: HMG1 (recombinant, native; immobilized, soluble); experiment: Direct and sandwich (capture) ELISA comparing forms of HMG1; format: binding; details: two ELISA formats, rHMG1
Method: Direct ELISA (immobilized HMG1): Individual wells of a 96-well immunoplate (EIA/RIA plate, High binding, Costar) were coated with HMGB-1 at 5 μg/ml in PBS at 4° C. overnight. The plate was then blocked with 4% milk powder dissolved in PBS at 37° C. for 1 hour. The blocking solution was removed and replaced with human anti-HMG1 antibodies at various concentrations (see FIG. 4A). The plate was then washed (ELX-405 Plate washer, BIO-TEK) and secondary antibody (anti-human IgG-HRP, PIERCE) was added at a final concentration of 1:125,000 at 37° C. for 1 hour. HRP activity was detected with Sureblue HRP substrate (KPL). Plates were read at 450 nm using a Kinetic Microplate Reader (Molecular Devices).
Sandwich ELISA (soluble HMG1): Immunoplates (EIA/RIA plate, High binding, Costar) were coated with anti human IgG Fc at 10 μg/ml in PBS (pH 7.2) and incubated at 4° C. overnight. The coating reagent was removed and the plates were rinsed briefly with PBS. The plates were then blocked with 4% milk for 1 hour at 37° C. and rinsed with PBS. The anti-HMG1 antibodies were diluted in 4% milk. For serial dilutions, the antibodies were used at a starting concentration of 20 μg/ml. The diluted anti-HMG1 antibodies were then added into plate and incubated for 1 hr at 37° C. The plate was then washed 10 times with PBST (PBS/0.1% tween 20) and incubate with antigen (HMGB1, 2 μg/ml; or 0.7 μg/ml for native HMGB1) in 4% milk and incubated at 37° C. for 1 h. The plate was then wash 10 times and incubated with mouse anti-HMGB1, 1 μg/ml in 4% milk at 37° C. for 1 h. The plate was washed 10 times and incubated with anti-mouse IgG-HRP at 1:1000 at 37° C. for 1 h. The plate was then washed and developed. HRP activity was detected with Sureblue HRP substrate (KPL). Plates were read at 450 nm using a Kinetic Microplate Reader (Molecular Devices).

[3] = Isoelectric focusing gel electrophoresis; format: physicochemical
Method: Isoelectric Focusing Gel Electrophoresis: Isoelectric points were determined using a Pharmacia Biotech Multiphor 2 electrophoresis system with a multi temp 3 refrigerated bath recirculation unit and an EPS 3501 XL power supply. Pre-cast ampholine gels (Amersham Biosciences, pI range 2.5-10) were loaded with 5 μg of protein. Broad range pI marker standards (Amersham, pI range 3-10, 8 μL) were used to determine relative pI for the Mabs. Electrophoresis was performed at 1500 V, 50 mA for 105 minutes. The gel was fixed using a Sigma fixing solution (5×) diluted with purified water to 1×. Staining was performed overnight at room temperature using Simply Blue stain (Invitrogen). Destaining was carried out with a solution that consisted of 25% ethanol, 8% acetic acid and 67% purified water. Isoelectric points were determined using a Bio-Rad Densitometer relative to calibration curves of the standards.

[4] = Differential scanning calorimetry; format: physicochemical; set-up: unit: °C; details: in °C (unit assumed)
Method: Differential Scanning Calorimetry: Thermal melting temperatures (Tm) were measured with a VP-DSC (MicroCal, LLC) using a scan rate of 1.0° C./min and a temperature range of 25-120° C. A filter period of 8 seconds was used along with a 5 minute pre-scan thermostating. Samples were prepared by dialysis into 25 mM Histidine-HCl, pH 6 using Pierce dialysis cups (3.5 kD). Average Mab concentrations were 50 μg/mL as determined by A280. Melting temperatures were determined following manufacturer procedures using Origin software supplied with the system. Briefly, multiple baselines were run with buffer in both the sample and reference cell to establish thermal equilibrium. After the baseline was subtracted from the sample thermogram, the data were concentration normalized and fitted using the deconvolution function.

[5] = target: T2, HMG2 (Bos taurus, UniProt P40673); experiment: Binding to HMG1 vs. HMG2 ELISA; set-up: species or system calf; details: immobilized antigen
T2 construct: from tissue; host or cells: calf thymus (as read from the sentence)
T2 sequence (P40673 1-209): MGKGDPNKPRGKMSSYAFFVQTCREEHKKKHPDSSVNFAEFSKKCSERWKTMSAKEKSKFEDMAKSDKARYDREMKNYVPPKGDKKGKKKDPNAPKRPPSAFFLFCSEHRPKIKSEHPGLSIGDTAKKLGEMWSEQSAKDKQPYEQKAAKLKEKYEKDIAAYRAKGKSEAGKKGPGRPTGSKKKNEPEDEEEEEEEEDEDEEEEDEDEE
Method: Binding to HMG1 vs. HMG2: Ultra high-binding ELISA plates (ThermoLab systems, #3855) were coated with either 5 ug/mL of Calf thymus HMGB1 or HMBG2 diluted in 10 mM Phosphate buffered saline (PBS), pH 7.2 and incubate overnight at 4 degrees. The plates were washed twice with Ca and Mg free PBS and 100 microliters of anti-HMGB1 antibody diluted in 10 mM PBS, pH 7.2+1% bovine serum albumin (BSA) to a final concentration of 10 ug/mL was added to each well and the plates were incubated 1 hour at room temperature. The wells were washed three times with 100 μl of PBS, pH 7.2. HRP labeled goat-anti-human IgG Kappa-chain (KPL, #14-10-10) and goat-anti-human IgG Lambda-chain (KPL, #14-10-11) were diluted in 10 mM PBS+1% BSA 1:1000 and 100 μl were added to each well and incubated for 1 hour at room temperature. The wells were then washed three times with 100 μl of PBS, pH 7.2. OPD substrate (Pierce chemical company, #34006) was prepared following the manufacturers instructions and 100 μl of prepared substrate was added to each well and the plates incubated at room temperature in the dark for 20-30 minutes. The reaction was stopped with the addition of 100 μl of 2M H2SO4, and the plates read on a plate reader at a wavelength of 490 nm.

B1: G16: human anti-HMG1 antibody; VL/VH aa SEQ ID NO: 42/44 (antibody, listed as Homo sapiens, V domains shown)
VH: EVQLLESGGGLVQPGGSLRLSCAASGFTFSWYKMTWVRQAPGKGLEWVSSISPSGGFTSYADSVKGRFTISRDNSKNTLYLQMNSLRAEDTAVYYCARDLDIRHAFDIWGQGTMVTVSS
VL: AQDIQMTQSPGTLSLSPGESGTLSCRASESVSSRHFAWYQQKPGQAPRLLIYGASSRPTGIPDRFSGSGSGTDFTLTLSRLEPEDFAVYFCQYYGSSPYTFGGGTKVEMK
block of recombinant HMG1 binding to RAGE [1]: did not inhibit RAGE binding; also recorded: do not at the concentrations tested
binding to immobilized versus soluble HMG1 [2]: bound slightly better to immobilized rHMG1

B2: G35: human anti-HMG1 antibody; VL/VH aa SEQ ID NO: 54/56 (antibody, listed as Homo sapiens, V domains shown)
VH: EVQLLESGGGLVQPGGSLRLSCAASGFTFSWYKMVWVRQAPGKGLEWVSSIVPSGGITIYADSVKGRFTISRDNSKNTLYLQMNSLRAEDTAVYYCARVQQWLGRPYFDYWGQGTLVTVSS
VL: AQDIQMTQSPLSLPVTPGEPASISCRSSQSLLHGNGYNYLDWYLQRPGQSPQLLIYSGSNRASGVPDRFSGSGSGTDFTLKISRVEAEDVGVYYCMQSLQSRTFGQGTKVEIK
PI [3]: 8.61
Tm [4]: 69
relative binding to HMG1 and HMG2 [5]: specific for HMG1

B3: S14: human anti-HMG1 antibody; VL/VH aa SEQ ID NO: 66/68 (antibody, listed as Homo sapiens, V domains shown)
VH: EVQLLESGGGLVQPGGSLRLSCAASGFTFSWYETGWVRQAPGKGLEWVSGISPSGGYTQYADSVKGRFTISRDNSKNTLYLQMNSLRAEDTAVYYCARSGVGATKIFDYWGQGTLVTVSS
VL: AQDIQMTQSPSSLSASVGDRVTIICRANERINTYLNWYQQKPGKAPKLLISGTSSLESGVPSRFSGSGSGTEFTLSISSLQPEDFASYYCQQSYSSPYTFGQGTNLEIR
PI [3]: 8.62
Tm [4]: 70.7
relative binding to HMG1 and HMG2 [5]: specific for HMG1
block of recombinant HMG1 binding to RAGE [1]: did not inhibit RAGE binding; also recorded: do not at the concentrations tested

B4: G34: human anti-HMG1 antibody; VL/VH aa SEQ ID NO: 50/52 (antibody, listed as Homo sapiens, V domains shown)
VH: EVQLLESGGGLVQPGGSLRLSCAASGFTFSHYMMGWVRQAPGKGLEWVSRISPSGGGTVYADSVKGRFTISRDNSKNTLYLQMNSLRAEDTAVYYCARGGNWNYISYYYYYLDVWGKGTTVTVSS
VL: AQDIQMTQSPSSLSASVGDRVAITCRASQSIDTYLNWYQQKPGKAPKLLIYAASKLEDGVPSRFSGSGTGTDFTLTIRSLQPEDFASYFCQQSYSSPGITFGPGTKVEIK
PI [3]: ~8.7
Tm [4]: ~75
relative binding to HMG1 and HMG2 [5]: specific for HMG1
block of recombinant HMG1 binding to RAGE [1]: do not at the concentrations tested
binding to immobilized versus soluble HMG1 [2]: bind better to soluble rHMG1

B5: G12: human anti-HMG1 antibody; VL/VH aa SEQ ID NO: 38/40 (antibody, listed as Homo sapiens, V domains shown)
VH: EVQLLESGGGLVQPGGSLRLSCAASGFTFSYYMMTWVRQAPGKGLEWVSSISPSGGYTIYADSAKGRFTISRDNSKNTLYLQMNSLRAEDTAVYYCARALSTGSFWDYWGQGTLVTVSS
VL: AQDIQMTQSPGTLSLSPGERATLSCRASESLTSTYVAWYQHKPGQAPRLLIHGGSTRATGIPVRFSGSGSGTDFTLTIATLEPEDFAVYYCQQYGSSPYTFGQGTKLEIK
PI [3]: 8.6
Tm [4]: 78.8
relative binding to HMG1 and HMG2 [5]: specific for HMG1
block of recombinant HMG1 binding to RAGE [1]: did not inhibit RAGE binding; also recorded: do not at the concentrations tested
binding to immobilized versus soluble HMG1 [2]: little difference in binding to immobilized or soluble HMG1
